The data set has as its system eighteen amino acid peptide containing the amino acid sequence PLGIA, covalently labeled with the same fluorophore near each end (HES structure).

Chain of matrix metalloprotease -9 (MMP-9) (chain, as listed by the source): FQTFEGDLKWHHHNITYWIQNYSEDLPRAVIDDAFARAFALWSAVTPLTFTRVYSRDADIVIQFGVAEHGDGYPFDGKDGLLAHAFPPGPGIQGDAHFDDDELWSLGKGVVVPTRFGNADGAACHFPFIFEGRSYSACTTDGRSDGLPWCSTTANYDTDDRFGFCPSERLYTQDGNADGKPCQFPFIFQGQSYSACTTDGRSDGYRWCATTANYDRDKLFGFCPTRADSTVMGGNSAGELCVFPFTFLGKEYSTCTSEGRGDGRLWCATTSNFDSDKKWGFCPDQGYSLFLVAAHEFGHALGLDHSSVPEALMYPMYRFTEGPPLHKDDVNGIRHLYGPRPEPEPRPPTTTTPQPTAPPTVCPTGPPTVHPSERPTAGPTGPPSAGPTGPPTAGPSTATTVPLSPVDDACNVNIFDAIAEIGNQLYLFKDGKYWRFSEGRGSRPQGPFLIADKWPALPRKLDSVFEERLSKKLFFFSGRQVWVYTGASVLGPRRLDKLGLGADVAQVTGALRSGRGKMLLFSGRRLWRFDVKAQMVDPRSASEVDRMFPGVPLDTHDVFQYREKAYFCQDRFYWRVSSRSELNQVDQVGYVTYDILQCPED

Take matrix metalloprotease -9 (MMP-9): the “HPLC retention time (C18, reverse phase)” value was “After exposure to MMP-9, the major peaks were at ca. 30 and 31 minutes with the almost complete disappearance of the 38 minute peak”; the “cleavage of the peptide” value was “The PLGIA sequence was recognized by matrix metalloprotease -9 (MMP-9) and is cleaved between the LG and the IA”.

Source of the values: patent US20230201361.
